Experiment [1] has as its target T1, PiT1 phosphate transporter on human cells (T cells, CD34 progenitor cells) (human, UniProt Q8WUM9 1-679).
T1 construct: whole, on cells; also called GaLV Env receptor
T1 sequence: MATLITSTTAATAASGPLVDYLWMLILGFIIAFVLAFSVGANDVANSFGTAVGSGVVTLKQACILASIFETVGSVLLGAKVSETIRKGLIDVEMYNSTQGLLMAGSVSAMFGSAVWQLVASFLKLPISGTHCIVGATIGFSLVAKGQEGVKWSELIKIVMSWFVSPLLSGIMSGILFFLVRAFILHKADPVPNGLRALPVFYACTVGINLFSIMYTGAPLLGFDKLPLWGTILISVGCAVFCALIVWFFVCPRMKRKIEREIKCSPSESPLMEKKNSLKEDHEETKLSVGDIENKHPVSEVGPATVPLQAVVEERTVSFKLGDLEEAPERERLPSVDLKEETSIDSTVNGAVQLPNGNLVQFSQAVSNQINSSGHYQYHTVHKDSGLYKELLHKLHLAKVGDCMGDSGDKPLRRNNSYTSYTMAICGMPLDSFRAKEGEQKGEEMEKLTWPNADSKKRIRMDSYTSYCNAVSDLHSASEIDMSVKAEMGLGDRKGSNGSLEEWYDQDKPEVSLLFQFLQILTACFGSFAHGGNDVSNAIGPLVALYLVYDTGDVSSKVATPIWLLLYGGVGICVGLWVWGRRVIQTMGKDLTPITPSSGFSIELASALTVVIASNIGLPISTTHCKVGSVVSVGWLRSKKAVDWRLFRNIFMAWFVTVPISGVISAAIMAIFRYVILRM
The experiment is described as follows: flow cytometry, tagged RBD on unstimulated and TCR-stimulated human T cells. In general terms: Flow cytometry measures light scatter and fluorescence of single cells or particles in a stream.

The target in experiment [2] is T2, PiT1 phosphate transporter on murine cells (CD4+ T cells; cerebellar cortex sections) (mouse, UniProt Q61609 1-681).
T2 construct: whole, on cells
T2 sequence: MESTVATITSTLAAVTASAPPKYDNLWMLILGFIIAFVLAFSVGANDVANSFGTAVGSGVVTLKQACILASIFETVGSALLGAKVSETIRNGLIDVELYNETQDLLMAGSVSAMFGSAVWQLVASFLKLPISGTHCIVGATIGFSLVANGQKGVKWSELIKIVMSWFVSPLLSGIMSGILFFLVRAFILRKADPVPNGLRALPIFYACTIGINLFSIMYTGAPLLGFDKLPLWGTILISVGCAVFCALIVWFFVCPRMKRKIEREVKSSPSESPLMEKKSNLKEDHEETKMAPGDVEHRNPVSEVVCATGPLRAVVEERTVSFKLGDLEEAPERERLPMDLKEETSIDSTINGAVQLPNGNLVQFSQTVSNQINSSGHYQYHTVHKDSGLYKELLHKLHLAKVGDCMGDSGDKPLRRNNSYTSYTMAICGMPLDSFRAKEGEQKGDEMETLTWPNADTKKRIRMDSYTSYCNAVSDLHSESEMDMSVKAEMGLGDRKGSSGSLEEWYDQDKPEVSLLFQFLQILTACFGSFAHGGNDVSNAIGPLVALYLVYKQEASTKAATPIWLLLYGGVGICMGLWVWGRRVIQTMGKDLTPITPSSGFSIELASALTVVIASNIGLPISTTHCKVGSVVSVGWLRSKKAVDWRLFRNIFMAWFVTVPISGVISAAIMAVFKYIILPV
Briefly: flow cytometry, RBD on murine CD4+ T cells polarised to Th0, Th1, Th2, Th17 or iTreg, day 4.

For experiment [3], the target named is T2, PiT1 phosphate transporter on murine …. Briefly: fluorescence staining of mouse cerebellum cryosections with RBD-rFc, biotinylated anti-rabbit IgG, Streptavidin-Alexa488.
Experiment [4] addresses T3, glucose transporter Glut1 on human cells (B cells, B-CLL cells, red blood cells, T cells) (human, UniProt P11166 1-492).
T3 construct: whole, on cells; Endogenous receptor on primary human cells; the species follows from the cells; also called HTLV Env receptor
T3 sequence: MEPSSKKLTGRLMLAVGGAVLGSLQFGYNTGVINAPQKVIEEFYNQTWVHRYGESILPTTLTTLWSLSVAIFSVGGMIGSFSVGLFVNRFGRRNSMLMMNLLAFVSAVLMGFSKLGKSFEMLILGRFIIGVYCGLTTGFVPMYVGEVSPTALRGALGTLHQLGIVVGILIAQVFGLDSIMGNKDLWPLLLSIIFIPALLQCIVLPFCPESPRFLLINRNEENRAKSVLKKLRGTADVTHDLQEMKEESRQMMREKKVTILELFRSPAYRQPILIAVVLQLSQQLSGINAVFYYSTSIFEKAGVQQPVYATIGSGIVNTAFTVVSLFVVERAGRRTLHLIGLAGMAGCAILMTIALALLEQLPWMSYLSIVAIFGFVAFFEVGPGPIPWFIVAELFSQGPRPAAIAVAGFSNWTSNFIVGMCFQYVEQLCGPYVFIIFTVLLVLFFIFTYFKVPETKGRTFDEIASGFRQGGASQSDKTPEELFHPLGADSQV
Briefly: flow cytometry, GFP-tagged RBD on human red blood cells.

B1: Gibbon Ape Leukemia virus (GALV) Env receptor binding domain, tagged soluble receptor binding ligand (ligand)
chain: TSLQNKNPHQPMTLTWQVLSQTGDVVWDTKAVQPPWTWWPTLKPDVCALAASLESWDIPGTDVSSSKRVRPPDSDYTAAYKQITWGAIGCSYPRARTRMASSTFYVCPRDGRTLSEARRCGGLESLYCKEWDCETTGTGYWLSKSSKDLITVKWDQNSEWTQKFQQCHQTGWCNPLKIDFTDKGKLSKDWITGKTWGLRFYVSGHPGVQFTIRLKITNMPAVAVGPDLVLVEQGPPRTSLALPPPLPPREAPPPSLPDSNSTALATSAQTPTVRKTIVTLNTPPPTTGDRLFDLVQGAFLTLNATNPGATESCWLC
notes: also called GaLV RBD; not shown: tag not specified
With B1, the binding result in experiment [1] and in experiment [2] was “binds” each time.

B2: Gibbon ape Leukemia Virus-RBD soluble RBD-rFc fusion protein (Fc fusion)
chain: B1 chain
notes: also called GRBD; not shown: rabbit IgG Fc (rFc)
For B2, in experiment [3], the binding result was “binds”.

B3: HTLV2 (SEQ ID NO: 28) tagged with a green fluorescent protein (GFP) (ligand)
chain: QQSRCTLTVGISSYHSSPCSPTQPVCTWNLDLNSLTTDQRLHPPCPNLITYSGFHKTYSLYLFPHWIKKPNRQGLGYYSPSYNDPCSLQCPYLGCQSWTCPYTGPVSSPSWKFHSDVNFTQEVSQVSLRLHFSKCGSSMTLLVDAPGYDPLWFITSEPTQPPPTSPPLVHDSDLEHVLTPSTSWTTKILKFIQLTLQSTNYSCMVC
notes: also called HRBD-EGFP; non antibody Glut1-ligand; not shown: green fluorescent protein tag (GFP / EGFP)
As for B3, in experiment [4], the binding result is given as “binds”.

Values taken from US20130203080A1 (UNIVERSITE MONTPELLIER 2, published 2013).
